Test results from the nanobody polyreactivity screen of Harvey et al. (2022).

test: yeast display, Sf9 membrane polyspecificity reagent, FACS + sequencing; frameworks hold sequencing errors
Outline: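 Galactose-induced (36–48 hours) yeast carrying a synthetic nanobody display library were exposed to 10% biotinylated, detergent-solubilized Sf9 membrane reagent at 4 °C for 1 hour. FACS followed streptavidin microbead enrichment, using low and high (top ~1%) gates for expression (anti-HA) and reagent binding (streptavidin). Colony PCR, MiSeq 2 × 250 sequencing and CDR-length filtering followed. Labels for polyreactivity reflect the gate of origin.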

Sequence	polyreactivity (PSR sort gate)
QVQLVESGGGLVQAGGSLRLSCAASGSTFYSNAMGWYRQAPGKERELVAAINYSGGGTYYADSVKGRFTISRDNAKNTVYLQMNSLKPEDTAVYYCAADGSYVHWEYGYWGQGTQVTVSS	low polyreactivity
QVQLVESGGGLVQAGGSLRLSCAASGSTFYVNDMGWYRQAPGKERELVAAITWGVGDTYYADSVKGRFTISRDNAKNTVYLQMNSLKPEDTAVYYCAADTSYYYAYTQMEYWGQGTQVTVSS	low polyreactivity
QVQLVESGGGLVQAGGSLRISCAASGRIFYCYVMGWYRQAPGKERELVAAINLSGTSTYYADSVKGRFTISRDNAKNTVYLQMNSLKPEDTAVYYCAADQVGWTYDYWGQGTQVTVSS	low polyreactivity
QVQLVESGGGLVQAGGSLRLSCAASGSIFYYYAMGWYRQAPGKEREFVAAIRESGGSTYYADSVKGRFTISRDNAKNTVYLQMNSLKPEDTAVYYCAVRRPRRNYNYPYDYCGQGTQVTVSS	low polyreactivity
QVQLVESGGGLVQAGGSLRLSCAASGSTFFQYAMGWYRQAPGKERELVAAITTSGGRTYYADSVKGRFTISRDNAKNTVYLQMNSLKPEDTAVYYCAGYNYWGQGTQVTVSS	high polyreactivity
QVQLVESGGGLVQAGGSLRLSCAASGITFHWYAMGWYRQAPGKERELVAAITSSGDSTFYADSVKGRFTISRDNAKNSVYLQMNSLKPEDTAVYYCAVDVYVGYWGRLYYWGQGTQVTVSS	low polyreactivity
QVQLVESGGGLVQAGGSLRLSCAASGSTFWYYDMGWYRQAPGKERELVAAITSGGRTNYADSVKGRFTISRDNAKNTVYLQMNSLKPEDTAVYYCARGPLSHTALYWRGRYNYWGQGTQVTVSS	high polyreactivity
QVQLVESGGGLVQAGGSLRLSCAASGFTFYRYAMGWYRQAPGKERELVAAITWSGGSTYYADSVKGRFTISRDNAKNTVYLQMNSLKPVDTAVYYCAADIYDGGFDYWGQGTQVTVSS	low polyreactivity
QVQLVESGGGLVQAGGSLRLSCAASGGIFNYYAMGWYRPAPGKVRELVAAISASGGSTYYADSVKGRFTISRDNAKNTVYLQMNSLIQEDTAVYYCAAGLPYGYGYDYWGQGTQVTVSS	low polyreactivity
QLQLEESGGGLVQAGGSLRLSCAASGSTFSRNAMGWYRQAPGNERELVAAITIRGGSTSYADSVKGRFTISRENAKNTVYLQMNSLKPEDTAVYYCYRQSRNAGGYYWGQGTQVTVSS	low polyreactivity
QVQLVESGGGLVQAGGSLRLSCAASGSIFSSYAMGWYRQAPGKEREMVAAITYSGGRTYYADSVKGRFTISRDNAKNTVYLQMNSLKPEDTAVYYCNARKYVGFWSRYDYWGQGTQVTVSS	high polyreactivity
QVQVVESGGGLVQAGCSLRLSCAASGSTFQANDMGLYRQAPGKERELVAAISTGGSSTYYADSVKGRFTISRDNEKNTFFLQMNSLKPEDTAVYYCAVDGLGGREGYWGQGTQVTVSS	high polyreactivity
QVQLVESGGGLVQAGGSLRLSCAASGYIFSANAMGWYRQAPGKEREFVAAISSTGGSTYYADSVKGRFTISRDNAKNTVYLQMNSLKPEDTAVYYCAAYIRRYFHYDYWGQGTQVTVSS	high polyreactivity
QVQLVESGGGLVQAGGSLRLSCAASGSTFYTNAMGWYRQAPGKERELVAVITSSGVRTYYADSVKGRFTISRDNAKKTVYFQMNSLKPEDTAVYYCAAEARVGDHFQILDYWGQGTQVTVSS	high polyreactivity
QVQLVESGGGLVQAGGSLRLSCAASGLTFDPYAMGWYRQAPGKERELVADISDGASTYYADSVKGRFTMSRDNAKNTVYLQMNSLKPEDTAVYYCNVDVGWYAFTDAYDYWGQGTHVTVSS	low polyreactivity
QVQLVESGGGLVQAGGSLRLSCAASGSIFITYAMGWYRQAPGKERELVAAIRDSGDRTYYADSVKGRFTISRDNAKNTVYLQMNSLKPEDTEVYYCNALWQEPLKYDYWGQGTQVTVSS	low polyreactivity
QDQLVESVGGLVQAGGSLRLSCAASGLIFSRNVMGWYRQGPGTERELVAAITRSGGSTYYADSVKGRFTISRDNAKNTVYLQMNSLKPVDTAVYYCAASRFNYVYLLKGDYWGQGTQVTVSS	high polyreactivity
QVQLVESGGGLVQAGGSLRLSCAASGSIFVTNAMGWYRQAPGKEREWVAAISVSGGSTYYADSVKGRFTISRDNAKNTVYLQMNSLKPEDTAVYYCAAPGRLFSLYDYWGQGTQVTVSS	low polyreactivity
QVQLVESGGGLVQAGGSLRLSCAASGFTFYPYAMGWYRQAPGKERELVAAIRISGGSTYYADSVKGRFTISRDTAKNTVYLQMNSLKPEDTAVYYCAAKYPYYSSYAYGYWGQGTQVTVSS	high polyreactivity
QVQLVESGGGLVQAGGSLRLSCAASGFTFSDYAMGWYRQAPGKDRELVATISNGDSPYYADSVKGRFTISRDNAKNTVYVQMNSLKPVDTAVNYCATDQPYGADPSNDFDYWGQGTQVTVSS	low polyreactivity
QVQLVESGGGLVQAGGSLRLSCAASGLIVGGYTMGWYRQAPGKERELVAAIDSGGSTKYADSVKGRFTISRDNAKNTVYLQMNSLKPEDTAVYYCAARDYYAWRYRYHHEVSEFDYWGQGTQVTVSS	low polyreactivity
QVQLVESWGGLVQAGGSLRLSCAASGGIFWNYAMGWYRQAPGKERELVATISSGGSTKYADSVKGRFTISRDNAKNTVYLQMNSLKPEDTAVYYCNKVFPNLYIYVVRGLIEMDYWGQGTQVTVSS	low polyreactivity

Sequence	polyreactivity (PSR sort gate)
QVQLVESGGGLVQAGGSLRLSCAASGSTFYDYAMGWYRQAPGKERELVASIDSGDSTNYADSVKGRFTISRDNAKNTVYLQMNSLKPEDTAVYYCAARVYSVADYYYWGQGTQVTVSS	low polyreactivity
QVQLVESGGGLVQAGGSLRLSCAASGITFDSYAMGWYRQAPGKERELVATISRSGTTTYYADSVKGRFTISRDNAKNTVYLQMNSLKPEDTAVYYCNTLRAYWTYHFYGAVRDGYDYWGQGTQVTVSS	low polyreactivity
QVQLLESGGGLVQAGGSIRLSFADSAFIFTSYSIGRYRQAPGKEREFVAAISWTGGTYYADSVKGRFTISRDNAKNTVYFLINSLKPEDTAVYYCAVRYKRKGSGYRYYLYVYWGQGTQVTVSS	high polyreactivity
QVQLVESGGGLVQAGGSLRLSCAASGRIFSYFAMGWYRQAPGKEWELVAASSGNGGSTYYADSVKGRFTISRDNAKNTVYLHMNSLKPEDTAVYYCAADWRSSDWAYLYPYSYDDWGQGTQVTVSS	low polyreactivity
QVQLVESGGGLVQAGGSLRLSCAASGSIFRYYAMGWYRQAPGKERELVAVITRGGSTYYADSVKGRFTISRDNAKNTVYLQMNRLKPEDTAVYYCAADFWPAGLDRGYWGQGTQVTVSS	low polyreactivity
HVQLVESGGGLVQAGGCLRLSCAASGIIFLYNAMGWYRQAPGKERELVATITWSGGSTYYADSVKGRFTISRDNAKITVYLQMKSLKPEDTAVYYCAADYYYGYEFGYWGQGTQVTVSS	low polyreactivity
QVQLVESGGGLLQAGGSLRLSCAASGRIFSFNTMGWYRQAPGKERELVAAISRGGSTYYADSVKGRFTNSRDNAKNTVYLQMNSMKPEDTAVYYCNALLPPGSRKYNYWGQGSQVTVSS	high polyreactivity
QVQLVESGGGLVQAGGSLSLSCAASGSIFGSYAMGWYRKAPGKERELVAAITGSGVSTYYADSVKGRFTISRDNAKYTVYLQMNSLKPEDTAVYYCAAKRYYARSAYGSYFIVGYWGQGTQVTVSS	high polyreactivity
QVQLVESGGGLVQAGGSLRLSCAASGRTFPGYAMGWYRQAPGKERELVAAISNSGGRTYYADSVKGRFTISRDYAKNTVYLQMNSLKPEDTAVYYCNATTDNGSNKRYYYWGQGTQVTVSS	high polyreactivity
QVQLVESGGGLVQEGGSLRLSCAASGSIFSGYAMGWYRPAPGKERELVAAISSSGGSTYYADSVKGRFTISRDNAKNTVYLQMNSLKPEDTAFYYCAADARWLWVYGAYGGLDYWGQGTQVTLSS	low polyreactivity
QVQLVESGGGLVQAGGSLRLSCAASGLTFGDYVMGWYRQAPGKERELVATITSDGGTTYADSVKGRFTISRDNAKNTVYLQMNSLKPEDTAVYYCAAGVTGPSDDYDYWGQGTQVTVSS	low polyreactivity
QVQLVESGGGLVQAGGILRLSCAASGSTSYIYAMGWYRQAPGKERELVAAITWRTGRTYYADSVKGRFTISRDNAKNTVYLQMNSLKPEDTAVYYCAATYYLSFAVKMYYWGQGTQVTVSS	high polyreactivity
QVQLVESGGGLVQAGGSLRLSCAASGSTFQRYAMGWYRQAPGKERELVAVITNGGSTKYADSVKGRFTISRDNAKNTVYLQMNSLKPEDTAVYYCAAGLRSWSTGLWYGYWGQGTQVTVSS	high polyreactivity
QVQLVESGGGLVQAGGSLRLSCAASGRTINRYAMGCYRHAPGKERELVAAINSVGSTYYADSVKGRFTISRDNAKYTVYLQMNSLKPEDTAVFYCNAVQGSRFGYWGEGTQVTVSS	high polyreactivity
QVQLVESGGGIVQAGGSLRLSCAASGSSFWRNTMGWYRQAPGKERELVAGISSTGTSTYYADSVKGRFTISRDNAKNTVYLQMNSLKPEDTAVYYCAAAYRNRKYDYWGQGTQVTVSS	high polyreactivity
QFQLVESGGGLVQAGGSLRLSCAASGSTFVYNAMGWDRHAPGKERELVAAISRGGGITYYADSVKGRFTISRDKAKNSVYFQMHSLKPEDTAVYYCQYLSRGLNTYRSSQGDDDYWGHGTQVTVSS	high polyreactivity
QDQHVESGGGLVQAGGSLRLSCAASGSNFVINAMGWYRQAPGKEREWVAAITSSGGSTYYADSVKGRFTISRDNAKNTVYLQMNSLKPEDTAVYYCAAYVRTAFGRMNYWGQGTLVTVSS	high polyreactivity
QVQLVESGGGLVQAGGSLRLSCAASGSNFRANAMGWYRQATGKERELVAAISKSGGSTYYADSVKGRFRISRDNAKNTVYLQMNSLKPEDTGVYYCAARTTYLYGMYYWGQGTQVTVSS	low polyreactivity
QVQLVESGGGLVQAGGSLRLSCAASGNTFVPYAMGWYIQAPRKEREFVAAISSTSGSTYYADSVKGRITISRDNAKNTVYLQMNSLKPEDTAVYYCATKRPYSSKRYKYWKVDYWGQGTQVTVSS	high polyreactivity
QVQLVESGGGLVQAGGSLRLSCAASGRIFRAYAMGWYRQAPGKERELVAAIRGRGGSTYADSVKGRFTISRDNAKNTVYLQMNSLKPEDTAVYYCAAGYYRYAWPYYGGRDYWGQGTQVTVSS	high polyreactivity
QVQLVESGGGLVQAGGSLRLSCAASGRTFYKYVMVWYRQAPGKERELVAAITRSGGRTYYADSVKGRFTISRDNAKNTVYLHMNSLKPEDTAVYYCAAASYSGHGRYDYWGQGTQVTVSS	high polyreactivity
